Data: IntAct's records for PubMed 28360110

B1: Solute carrier family 26 member 9 (Homo sapiens), Q7LBE3-1 (parent)
chain: MSQPRPRYVVDRAAYSLTLFDDEFEKKDRTYPVGEKLRNAFRCSSAKIKAVVFGLLPVLSWLPKYKIKDYIIPDLLGGLSGGSIQVPQGMAFALLANLPAVNGLYSSFFPLLTYFFLGGVHQMVPGTFAVISILVGNICLQLAPESKFQVFNNATNESYVDTAAMEAERLHVSATLACLTAIIQMGLGFMQFGFVAIYLSESFIRGFMTAAGLQILISVLKYIFGLTIPSYTGPGSIVFTFIDICKNLPHTNIASLIFALISGAFLVLVKELNARYMHKIRFPIPTEMIVVVVATAISGGCKMPKKYHMQIVGEIQRGFPTPVSPVVSQWKDMIGTAFSLAIVSYVINLAMGRTLANKHGYDVDSNQEMIALGCSNFFGSFFKIHVICCALSVTLAVDGAGGKSQVASLCVSLVVMITMLVLGIYLYPLPKSVLGALIAVNLKNSLKQLTDPYYLWRKSKLDCCIWVVSFLSSFFLSLPYGVAVGVAFSVLVVVFQTQFRNGYALAQVMDTDIYVNPKTYNRAQDIQGIKIITYCSPLYFANSEIFRQKVIAKTGMDPQKVLLAKQKYLKKQEKRRMRPTQQRRSLFMKTKTVSLQELQQDFENAPPTDPNNNQTPANGTSVSYITFSPDSSSPAQSEPPASAEAPGEPSDMLASVPPFVTFHTLILDMSGVSFVDLMGIKALAKLSSTYGKIGVKVFLVNIHAQVYNDISHGGVFEDGSLECKHVFPSIHDAVLFAQANARDVTPGHNFQGAPGDAELSLYDSEEDIRSYWDLEQEMFGSMFHAETLTAL

Variants of: B1
Settings: with gopc_human GOPC

effect of a mutation on the interaction | Variant
decreasing interaction strength | T789A
